± gives the standard deviation of the averaged measurements.
Test system: ATP
Experiment: switch fluorescence ratio, 500 uM ATP over buffer (Cy3 cluster intensity, sum of 5 cycles each) (fold (ratio)); higher = stronger signal-on switching upon ATP binding; sequences stand for … in TCGTCGGCAGCGTCAGATGTGTATAAGAGACAGTTTTTTTTTTTTTTTTTTTTTTTTT…TC
Conditions: aptamer strand: ATP DNA aptamer (quencher-CACCTGGGGGAGTATTGCGGAGGAAGG + anchor), 100 nM annealed; ATP concentration: 500 uM
Outline: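 After annealing to 100 nM quencher-labelled ATP aptamer, Cy3-labelled switching-strand clusters on a modified Illumina MiSeq flow-cell were imaged in selection buffer. A second image followed after 15 min with 500 uM ATP at 22 °C, and five such buffer/ATP cycles were done, each separated by NaOH stripping and re-annealing. The fluorescence ratio, averaged per switch-domain sequence, is summed target-cycle over summed buffer-cycle Cy3 intensity per cluster, with clusters outside 100-1000 RFU excluded.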
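Also: ATP exposure 15 min at 22 °C before imaging.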

TAATTGGTGT
switch fluorescence ratio: 1.02 ± 0.043

TAATTGTGTG
switch fluorescence ratio: 1 ± 0.038

TAATTTAAAA
switch fluorescence ratio: 1.05 ± 0.12

TAATTTATCG
switch fluorescence ratio: 1.04 ± 0.038

TAATTTATTT
switch fluorescence ratio: 1.03 ± 0.029

TAATTTCCGG
switch fluorescence ratio: 0.994 ± 0.029

TAATTTGAAA
switch fluorescence ratio: 1.03 ± 0.07

TAATTTGGTG
switch fluorescence ratio: 1.043 ± 0.0083

TAATTTGTTT
switch fluorescence ratio: 1.03 ± 0.025

TAATTTTCGT
switch fluorescence ratio: 1.02 ± 0.03

TAATTTTGCG
switch fluorescence ratio: 1 ± 0.015

TAATTTTGGG
switch fluorescence ratio: 0.999 ± 0.047

TAATTTTTGG
switch fluorescence ratio: 0.992 ± 0.023

TAATTTTTTA
switch fluorescence ratio: 0.976 ± 0.03

TACAAAAAAT
switch fluorescence ratio: 1.03 ± 0.047

TACAAAAGGT
switch fluorescence ratio: 1.07 ± 0.094

TACAAGGGTG
switch fluorescence ratio: 1.1 ± 0.03

TACAAGTCGT
switch fluorescence ratio: 0.98 ± 0.012

TACACATTTT
switch fluorescence ratio: 1.07 ± 0.026

TACACCCTTC
switch fluorescence ratio: 1.183 ± 0.011

TACACTGGGT
switch fluorescence ratio: 0.999 ± 0.022

TACACTTGTA
switch fluorescence ratio: 1.03 ± 0.057

TACAGAATGA
switch fluorescence ratio: 1.003 ± 0.0041

TACAGACTGT
switch fluorescence ratio: 1.04 ± 0.021

TACAGAGGG
switch fluorescence ratio: 0.966 ± 0.06

TACAGCAGGG
switch fluorescence ratio: 1.04 ± 0.012

TACAGCAGTG
switch fluorescence ratio: 1.02 ± 0.023

TACAGCTTTT
switch fluorescence ratio: 1.01 ± 0.031

TACAGGGGTC
switch fluorescence ratio: 1.06 ± 0.019

TACAGGTATC
switch fluorescence ratio: 0.9796 ± 0.0048

TACAGGTTTC
switch fluorescence ratio: 1 ± 0.023

TACAGTCTGG
switch fluorescence ratio: 1.007 ± 0.0066

TACAGTGAGC
switch fluorescence ratio: 1.026 ± 0.0019

TACATCGTCC
switch fluorescence ratio: 1.05 ± 0.024

TACATGAGTA
switch fluorescence ratio: 1.03 ± 0.023

TACATGCTGC
switch fluorescence ratio: 1.03 ± 0.022

TACATGTCGT
switch fluorescence ratio: 0.996 ± 0.018

TACATTATAG
switch fluorescence ratio: 1.01 ± 0.036

TACATTGTGC
switch fluorescence ratio: 1.01 ± 0.015

TACATTTAGG
switch fluorescence ratio: 0.9964 ± 0.0092

TACCAGCATT
switch fluorescence ratio: 1.1 ± 0.051

TACCAGGCGG
switch fluorescence ratio: 1.04 ± 0.037

TACCAGTGAT
switch fluorescence ratio: 1 ± 0.018

TACCATCTTG
switch fluorescence ratio: 0.997 ± 0.037

TACCATGAAT
switch fluorescence ratio: 1.01 ± 0.045

TACCATGGTA
switch fluorescence ratio: 0.987 ± 0.035

TACCCTTGCC
switch fluorescence ratio: 1.22 ± 0.25

TACCCTTGGG
switch fluorescence ratio: 0.9937 ± 0.0072

TACCCTTTTT
switch fluorescence ratio: 1.01 ± 0.054

TACCGAAGGG
switch fluorescence ratio: 0.989 ± 0.028

TACCGGGGGT
switch fluorescence ratio: 1.63 ± 0.83

TACCGTAAAC
switch fluorescence ratio: 1.8 ± 0.7

TACCGTGTCC
switch fluorescence ratio: 1.11 ± 0.06

TACCGTTTTT
switch fluorescence ratio: 1.01 ± 0.045

TACCTAGTGC
switch fluorescence ratio: 1.035 ± 0.0016

TACCTGCGAA
switch fluorescence ratio: 2.07 ± 1.3

TACGAGACGG
switch fluorescence ratio: 1.095 ± 0.0059

TACGAGCTGG
switch fluorescence ratio: 0.995 ± 0.01

TACGAGTTAA
switch fluorescence ratio: 0.97 ± 0.015

TACGAGTTTT
switch fluorescence ratio: 0.996 ± 0.01

TACGATATAC
switch fluorescence ratio: 3.09 ± 0.34

TACGATGCGG
switch fluorescence ratio: 1.07 ± 0.038

TACGATGTGC
switch fluorescence ratio: 1.0053 ± 0.00075

TACGCAGAAT
switch fluorescence ratio: 3.38 ± 3.2

TACGCGGGGG
switch fluorescence ratio: 1.019 ± 0.0098

TACGCGGTTG
switch fluorescence ratio: 1.07 ± 0.044

TACGCGTGGG
switch fluorescence ratio: 1.004 ± 0.0084

TACGGAACGG
switch fluorescence ratio: 1.07 ± 0.029

TACGGAGATT
switch fluorescence ratio: 1.01 ± 0.035

TACGGATACT
switch fluorescence ratio: 1.27 ± 0.026

TACGGATTGT
switch fluorescence ratio: 0.988 ± 0.027

TACGGGAGGG
switch fluorescence ratio: 1.07 ± 0.022

TACGGGCGTC
switch fluorescence ratio: 1 ± 0.028

TACGGGGCGA
switch fluorescence ratio: 1.07 ± 0.036

TACGGGGGAC
switch fluorescence ratio: 1.07 ± 0.047

TACGGGGGTA
switch fluorescence ratio: 1.02 ± 0.036

TACGGGGGTG
switch fluorescence ratio: 1.01 ± 0.042

TACGGGGTCA
switch fluorescence ratio: 0.971 ± 0.03

TACGGTAGCC
switch fluorescence ratio: 1.043 ± 0.0061

TACGGTCCTG
switch fluorescence ratio: 0.99156 ± 0.00092

TACGTAACTC
switch fluorescence ratio: 1.28 ± 0.028

TACGTATGAA
switch fluorescence ratio: 1.17 ± 0.014

TACGTATTTA
switch fluorescence ratio: 1.13 ± 0.0012

TACGTATTTT
switch fluorescence ratio: 1.023 ± 0.0035

TACGTCACGA
switch fluorescence ratio: 1.42 ± 0.19

TACGTCCCGG
switch fluorescence ratio: 1.08 ± 0.014

TACGTCTTGG
switch fluorescence ratio: 1.04 ± 0.033

TACGTGCTTG
switch fluorescence ratio: 0.989 ± 0.03

TACGTGGGTG
switch fluorescence ratio: 1.05 ± 0.02

TACGTGTAGC
switch fluorescence ratio: 1.01 ± 0.011

TACGTGTTTG
switch fluorescence ratio: 1.01 ± 0.033

TACTACTTAT
switch fluorescence ratio: 1.04 ± 0.053

TACTAGGCG
switch fluorescence ratio: 1.014 ± 0.0083

TACTAGTTGG
switch fluorescence ratio: 0.997 ± 0.011

TACTCATGGG
switch fluorescence ratio: 1.01 ± 0.035

TACTCGAGGG
switch fluorescence ratio: 1.08 ± 0.031

TACTCGGATT
switch fluorescence ratio: 0.996 ± 0.015

TACTCGGGAA
switch fluorescence ratio: 3.05 ± 2

TACTGACTTG
switch fluorescence ratio: 0.989 ± 0.014

TACTGGCCGG
switch fluorescence ratio: 1.03 ± 0.029

TACTGGGGTT
switch fluorescence ratio: 0.981 ± 0.031

TACTGGTGAC
switch fluorescence ratio: 1.06 ± 0.012

TACTGGTTGG
switch fluorescence ratio: 1 ± 0.021

TACTGTAGGG
switch fluorescence ratio: 1.12 ± 0.029

TACTGTGAGC
switch fluorescence ratio: 1.016 ± 0.0076

TACTGTGGGG
switch fluorescence ratio: 1.009 ± 0.0094

TACTTAGTTT
switch fluorescence ratio: 1.01 ± 0.077

TACTTATGGA
switch fluorescence ratio: 0.984 ± 0.043

TACTTCATTC
switch fluorescence ratio: 1.037 ± 0.0095

TACTTGAGTT
switch fluorescence ratio: 1.05 ± 0.012

TACTTGTGTT
switch fluorescence ratio: 1.02 ± 0.046

TACTTTGGGG
switch fluorescence ratio: 0.989 ± 0.022

TACTTTTCGT
switch fluorescence ratio: 0.995 ± 0.024

TACTTTTGCT
switch fluorescence ratio: 0.9669 ± 0.0014

TAGAAAAAGA
switch fluorescence ratio: 0.988 ± 0.016

TAGAAAAGAG
switch fluorescence ratio: 1.01 ± 0.024

TAGAAAAGGC
switch fluorescence ratio: 1.15 ± 0.21

TAGAAACTTT
switch fluorescence ratio: 1.1 ± 0.14

TAGAAATGCG
switch fluorescence ratio: 1.038 ± 0.0038

TAGAACCGGG
switch fluorescence ratio: 1.09 ± 0.024

TAGAAGGGGT
switch fluorescence ratio: 0.969 ± 0.047

TAGAAGGGTT
switch fluorescence ratio: 1 ± 0.024

TAGAATCCGG
switch fluorescence ratio: 0.979 ± 0.011

TAGAATCGGG
switch fluorescence ratio: 0.9758 ± 0.0078

TAGACAGTTT
switch fluorescence ratio: 0.993 ± 0.023

TAGACCAAAA
switch fluorescence ratio: 1.02 ± 0.017

TAGACCGGAG
switch fluorescence ratio: 1.04 ± 0.014

TAGACGGAAG
switch fluorescence ratio: 1.052 ± 0.00072

TAGACGGGCA
switch fluorescence ratio: 1.01 ± 0.015

TAGAGAAGTT
switch fluorescence ratio: 1 ± 0.015

TAGAGAATTT
switch fluorescence ratio: 0.984 ± 0.02

TAGAGATCTA
switch fluorescence ratio: 1.011 ± 0.0016

TAGAGCATTG
switch fluorescence ratio: 1 ± 0.044

TAGAGGCAGG
switch fluorescence ratio: 0.985 ± 0.018

TAGAGGGCGG
switch fluorescence ratio: 1.03 ± 0.012

TAGAGGGGCG
switch fluorescence ratio: 0.946 ± 0.065

TAGAGTAGCT
switch fluorescence ratio: 1 ± 0.035

TAGAGTGGGC
switch fluorescence ratio: 0.991 ± 0.013

TAGATAATGG
switch fluorescence ratio: 1.02 ± 0.014

TAGATAGGGA
switch fluorescence ratio: 1.01 ± 0.024

TAGATCAATG
switch fluorescence ratio: 1.02 ± 0.024

TAGATCGCTG
switch fluorescence ratio: 0.931 ± 0.028

TAGATGTTGA
switch fluorescence ratio: 0.973 ± 0.036

TAGATTCTGA
switch fluorescence ratio: 1.01 ± 0.032

TAGATTGACC
switch fluorescence ratio: 1.04 ± 0.033

TAGATTGGAG
switch fluorescence ratio: 0.987 ± 0.0072

TAGATTGGTG
switch fluorescence ratio: 0.991 ± 0.04

TAGCAACGCA
switch fluorescence ratio: 1.03 ± 0.015

TAGCAACGGG
switch fluorescence ratio: 1.03 ± 0.015

TAGCAATTAG
switch fluorescence ratio: 2.45 ± 0.031

TAGCACCATT
switch fluorescence ratio: 1.1 ± 0.072

TAGCAGACGG
switch fluorescence ratio: 1.03 ± 0.015

TAGCAGGGTG
switch fluorescence ratio: 1.14 ± 0.019

TAGCATTGGT
switch fluorescence ratio: 0.9903 ± 0.0016

TAGCCGGAGG
switch fluorescence ratio: 0.986 ± 0.018

TAGCCGGGGT
switch fluorescence ratio: 1.04 ± 0.054

TAGCCGGTTC
switch fluorescence ratio: 1.026 ± 0.01

From the supplement of paper PMC10126150
